This is an account of results in US20200317791A1.

Test [1] addresses T1, HLA-Cw6/ADAMTSL5-Abu on rhHLA-Cw6 expressing cells loaded with ADAM-Abu peptide (human), P10321.
The target in test [2] is T1, HLA-Cw6/ADAMTSL5-Abu on rhHLA-Cw6 …. The experiment in a line: cell-based or functional assay.

B1: CW6B130 (antibody, V domains shown)
VH: QLQLQESGPGLVKPSETLSLTCTVSGASISSINYYWGWIRQPPGKGLEWIGSFYYSGNTYYNPSLKSRVTISVDTSKNYFSLKLNSVTAADTAVYYCAREYYDSSGYYPFEPWGQGTLVTVSS
VL: SYVLTQPPSVSVAPGQTARITCGGDNIGSESVHWYQQKPGQAPVLVVYDDTDRPSGIPERFSGSKSGTTATLTISWVEAGDEADYYCQVWDSSSDHVVFGGGTKLTVL
For B1, the IC50 (read off the curve) in test [1] was determined as 0.03 µg/mL. In test [2], this molecule yielded an IL-2 % Inhibition (8.5 nM mAb), HLA-Cw6-00254 of 100% and an IL-2 % Inhibition (8.5 nM mAb), HLA-Cw6-00290 of 100%.

B2: CW6B175 (antibody, V domains shown)
VH: EVQLVESGGGLVQPGGSLRLSCAASGFTFTNYWMTWVRQAPGKGLEWVANIKQSGSEKYYVDSVKGRFTISRDNAKNSLYLQMNSLRAEDTAVYYCARTLYEWELEPFDYWGQGTLVTVSS
VL: SYVLTQPPSVSVAPGQTARITCGGNRIGSKSVHWYQQKPGQAPVLVVFDDSDRPSGIPERFSGSNSGITATLTISRVEAGDEADYYCQVWDSSNDHVVFGGGTKLTVL
On to B2, for which the IC50 (read off the curve) in test [1] turned out to be 0.2 µg/mL. In test [2], this molecule registered an IL-2 % Inhibition (8.5 nM mAb), HLA-Cw6-00254 of 85% and an IL-2 % Inhibition (8.5 nM mAb), HLA-Cw6-00290 of 96%.

B3: CW6B188 (antibody, V domains shown)
VH: EVQLVESGGGLVQPGGSLRLSCAASGFTFTNYWMTWVRQAPGKGLEWVANIKQSGNEKYYVDSVKGRFTISRDNAKNSLYLQMNSLRAEDTAVYYCARTLYEWELEPFDYWGQGTLVTVSS
VL: SYVLTQPPSVSVAPGQTARITCGGNRIGSKNLHWYQQKPGQAPVLVVYDDSDRPSGIPERFSGSNSGSTATLTISRVEAGDEADYYCQVWDSSRDHVVFGGGTKLTVL
In turn, B3 gave an IL-2 % Inhibition (8.5 nM mAb), HLA-Cw6-00254 in test [2] of 9%.

B4: CW6B228 (antibody, V domains shown)
VH: QVQLQESGPGLVKPSETLSLTCTVSGNSIRSYYWSWIRQPAGKGLEWIGRIYISGNTNYNPSLKSRVTMSIDTSKNQFSLKLSSVTAADTAVYYCARLSGIDAFDIWGQGTMVTVSS
VL: DIQMTQSPSSLSASVGDRVTITCQASQDINNYLNWYQQKPGKAPKLLIYDASSLETGVPSRFSGSGSGTDFTFTISSLQPEDFATYYCQQYDDLPITFGQGTRLEIK
As for B4, the IL-2 % Inhibition (8.5 nM mAb), HLA-Cw6-00290 in test [2] worked out at 100%.

B5: CW6B230 (antibody, V domains shown)
VH: QVQLQESGPGLVKPSETLSLTCTVSGNSISNYYWSWIRQPAGKGLEWIGRIYITGNTNYNPSLKSRVTMSLDTSKNQFSLKLSSVTAADTAVYYCARLSGIDAFDIWGQGTMVTVSS
VL: DIQMTQSPSTLSASVGDRVTFTCQASQDITKYLNWYQQKPGKAPKLLIYDASNLETGVPSRFSGSGSGTDFTFTISSLQPEDFATYYCQQYDDLPITFGQGTRLEIK
B5 returned an IC50 (read off the curve) in test [1] of 0.2 µg/mL. The molecule further showed an IL-2 % Inhibition (8.5 nM mAb), HLA-Cw6-00290 in test [2] of 93%.

B6: CW6B229 (antibody, V domains shown)
VH: QVQLQESGPGLVKPSETLSLTCTVSGNSIRSYYWSWIRQPAGKGLEWIGRIYISGNTNYNPSLKSRVTMSIDTSKNQFSLKLSSVTAADTAVFYCARLSGIDAFDIWGQGTMVTVSS
VL: DIQMTQSPSSLSASVGDRVTITCQASQDISNYLNWYQQKPGKAPKLLIYDASNLETGVPSRFSGSGSGTDFTFTISSLQPEDFATYYCQQYDNLPITFGQGTRLEIK
Regarding B6, the IC50 (read off the curve) in test [1] was 0.2 µg/mL. Besides, in test [2], the IL-2 % Inhibition (8.5 nM mAb), HLA-Cw6-00290 is 86%.

B7: CW6B233 (antibody, V domains shown)
VH: QVQLQESGPGLVKPSETLSLTCTVSGNSIRSYYWSWIRQPAGKGLEWIGRIYISGNTNYNPSLKSRVTMSIDTSKNQFSLKLSSVTAADTAVYYCARLSGIDAFDIWGQGTMVTVSS
VL: DIQMTQSPSSLSASVGDRVTITCQASQDITNYLNWYQQKPGKAPKLLIYDASNLETGVPSRFSGSGSGTDFTFTISSLQPEDFATYYCQQYDNLPITFGQGTRLEIK
B7 displayed an IC50 (read off the curve) in test [1] of 0.2 µg/mL. In test [2], the IL-2 % Inhibition (8.5 nM mAb), HLA-Cw6-00290 came out at 91%.

B8: CW6B238 (antibody, V domains shown)
VH: QVTLKESGPVLVKPTETLTLTCTVSGFSLNNARMGVSWIRQPPGKALEWLAHMFSSDEKFYRTSLKSRLTISKDTSKSQVVLTMTNMDPVDTATYYCARISLYSSGHDTFDLWGQGTMVTVSS
VL: AIQMTQSPSSLSASVGDRVTITCRASQDIRNTLGWYQQKPGKAPNLLIYAASSLQSGVPSRFSGSGSGTDFTLTISSLQPEDFATYYCLQDYDYPLTFGGGTKVEIK
B8 came in with an IC50 (read off the curve) in test [1] of 0.2 µg/mL. In test [2], this molecule returned an IL-2 % Inhibition (8.5 nM mAb), HLA-Cw6-00290 of 86%.

B9: CW6B237 (antibody, V domains shown)
VH: QVTLKESGPVLVKPTETLTLTCTVSGFSLSNARMGVSWIRQPPGKALEWLAHIFSHDEKFYSTFLKSRLTISKDTSKSQVVLMMTNMDPVDTATYYCARIILSSSGHDAFDIWGQGTMVTVSS
VL: AIQMTQSPSSLSASVGDRVTITCRASQDIRHNLGWYQQKPGKAPNLLIYAASSLQSGVPSRFSGSGSGTDFILTISSLQPEDFATFFCLQDYIYPLTFGGGTKVEIK
The molecule B9 had an IL-2 % Inhibition (8.5 nM mAb), HLA-Cw6-00290 in test [2] of 59%.
